Our source for the percent cross-linking values is paper PMC3269792.

The target in assay [1] is KCNQ1-KCNQ1 dimer (QQ) of the tandem EQQ construct with I145C in the distal KCNQ1 subunit (human). In words: cross-linking.
Assay [2] has as its target KCNQ1-KCNQ1 dimer (QQ) of the tandem EQQ construct with I145C in the proximal KCNQ1 subunit (human). Kind of assay: cross-linking.

As to “KCNE1 K41C subunit of the tandem EQQ construct, cut off by HRV-3C protease (natural protein)”, the percent cross-linking is 50% in assay [1] and 90% in assay [2].
